Source: patent US20140087995A1 (published 2014)
Numbered stars: 1 amine (or outer) side, 2 acyl side, 3 side chain; on linkers, the order of the positions; unused ones are H or OH. Bridge positions count the residues as written; N and C are the ends. Side chains are listed from the residue outwards. Ends that are not written are not given here. * marks the point of attachment. C20 diacid = O=C(O)CCCCCCCCCCCCCCCCCCC(=O)*; γGlu = O=C(O)[C@H](CCC(=O)[*:2])N[*:1]; AEEA = NCCOCCOCC(=O)O

B1: N^ε1-[2-[2-[2-[[(4S)-4-carboxy-4-(19-carboxynonadecanoylamino)butanoyl]amino]ethoxy]ethoxy]acetyl]-[Arg17,Pro21,Pro27,Pro28,Pro34]-h-amylin (peptide)
peptide: K([AEEA-γGlu-C20 diacid])CNTATCATQRLANFLRHSSPNFGAIPPSTNVGPNTY-NH2
modifications: disulfide 2-7; N-terminus assumed
SMILES: CC[C@H](C)[C@H](NC(=O)[C@H](C)NC(=O)CNC(=O)[C@H](Cc1ccccc1)NC(=O)[C@H](CC(N)=O)NC(=O)[C@@H]1CCCN1C(=O)[C@H](CO)NC(=O)[C@H](CO)NC(=O)[C@H](Cc1c[nH]cn1)NC(=O)[C@H](CCCNC(=N)N)NC(=O)[C@H](CC(C)C)NC(=O)[C@H](Cc1ccccc1)NC(=O)[C@H](CC(N)=O)NC(=O)[C@H](C)NC(=O)[C@H](CC(C)C)NC(=O)[C@H](CCCNC(=N)N)NC(=O)[C@H](CCC(N)=O)NC(=O)[C@@H](NC(=O)[C@H](C)NC(=O)[C@@H]1CSSC[C@H](NC(=O)[C@@H](N)CCCCNC(=O)COCCOCCNC(=O)CC[C@H](NC(=O)CCCCCCCCCCCCCCCCCCC(=O)O)C(=O)O)C(=O)N[C@@H](CC(N)=O)C(=O)N[C@@H]([C@@H](C)O)C(=O)N[C@@H](C)C(=O)N[C@@H]([C@@H](C)O)C(=O)N1)[C@@H](C)O)C(=O)N1CCC[C@H]1C(=O)N1CCC[C@H]1C(=O)N[C@@H](CO)C(=O)N[C@H](C(=O)N[C@@H](CC(N)=O)C(=O)N[C@H](C(=O)NCC(=O)N1CCC[C@H]1C(=O)N[C@@H](CC(N)=O)C(=O)N[C@H](C(=O)N[C@@H](Cc1ccc(O)cc1)C(N)=O)[C@@H](C)O)C(C)C)[C@@H](C)O
notes: also called 17R, 21P, 27P, 28P, 34P
B2: N^ε1-[2-[2-[2-[[(4S)-4-carboxy-4-(19-carboxynonadecanoylamino)butanoyl]amino]ethoxy]ethoxy]acetyl]-[Arg17,Pro21,Pro27,Pro29,Pro31]-h-amylin (peptide)
peptide: K([AEEA-γGlu-C20 diacid])CNTATCATQRLANFLRHSSPNFGAIPSPTPVGSNTY-NH2
modifications: disulfide 2-7; N-terminus assumed
SMILES: CC[C@H](C)[C@H](NC(=O)[C@H](C)NC(=O)CNC(=O)[C@H](Cc1ccccc1)NC(=O)[C@H](CC(N)=O)NC(=O)[C@@H]1CCCN1C(=O)[C@H](CO)NC(=O)[C@H](CO)NC(=O)[C@H](Cc1c[nH]cn1)NC(=O)[C@H](CCCNC(=N)N)NC(=O)[C@H](CC(C)C)NC(=O)[C@H](Cc1ccccc1)NC(=O)[C@H](CC(N)=O)NC(=O)[C@H](C)NC(=O)[C@H](CC(C)C)NC(=O)[C@H](CCCNC(=N)N)NC(=O)[C@H](CCC(N)=O)NC(=O)[C@@H](NC(=O)[C@H](C)NC(=O)[C@@H]1CSSC[C@H](NC(=O)[C@@H](N)CCCCNC(=O)COCCOCCNC(=O)CC[C@H](NC(=O)CCCCCCCCCCCCCCCCCCC(=O)O)C(=O)O)C(=O)N[C@@H](CC(N)=O)C(=O)N[C@@H]([C@@H](C)O)C(=O)N[C@@H](C)C(=O)N[C@@H]([C@@H](C)O)C(=O)N1)[C@@H](C)O)C(=O)N1CCC[C@H]1C(=O)N[C@@H](CO)C(=O)N1CCC[C@H]1C(=O)N[C@H](C(=O)N1CCC[C@H]1C(=O)N[C@H](C(=O)NCC(=O)N[C@@H](CO)C(=O)N[C@@H](CC(N)=O)C(=O)N[C@H](C(=O)N[C@@H](Cc1ccc(O)cc1)C(N)=O)[C@@H](C)O)C(C)C)[C@@H](C)O
notes: also called 17R, 21P, 27P, 29P, 31P
B3: N^ε1-[2-[2-[2-[[(4S)-4-carboxy-4-(19-carboxynonadecanoylamino)butanoyl]amino]ethoxy]ethoxy]acetyl]-[Arg17,Pro21,Pro27,Pro34]-h-amylin (peptide)
peptide: K([AEEA-γGlu-C20 diacid])CNTATCATQRLANFLRHSSPNFGAIPSSTNVGPNTY-NH2
modifications: disulfide 2-7; N-terminus assumed
SMILES: CC[C@H](C)[C@H](NC(=O)[C@H](C)NC(=O)CNC(=O)[C@H](Cc1ccccc1)NC(=O)[C@H](CC(N)=O)NC(=O)[C@@H]1CCCN1C(=O)[C@H](CO)NC(=O)[C@H](CO)NC(=O)[C@H](Cc1c[nH]cn1)NC(=O)[C@H](CCCNC(=N)N)NC(=O)[C@H](CC(C)C)NC(=O)[C@H](Cc1ccccc1)NC(=O)[C@H](CC(N)=O)NC(=O)[C@H](C)NC(=O)[C@H](CC(C)C)NC(=O)[C@H](CCCNC(=N)N)NC(=O)[C@H](CCC(N)=O)NC(=O)[C@@H](NC(=O)[C@H](C)NC(=O)[C@@H]1CSSC[C@H](NC(=O)[C@@H](N)CCCCNC(=O)COCCOCCNC(=O)CC[C@H](NC(=O)CCCCCCCCCCCCCCCCCCC(=O)O)C(=O)O)C(=O)N[C@@H](CC(N)=O)C(=O)N[C@@H]([C@@H](C)O)C(=O)N[C@@H](C)C(=O)N[C@@H]([C@@H](C)O)C(=O)N1)[C@@H](C)O)C(=O)N1CCC[C@H]1C(=O)N[C@@H](CO)C(=O)N[C@@H](CO)C(=O)N[C@H](C(=O)N[C@@H](CC(N)=O)C(=O)N[C@H](C(=O)NCC(=O)N1CCC[C@H]1C(=O)N[C@@H](CC(N)=O)C(=O)N[C@H](C(=O)N[C@@H](Cc1ccc(O)cc1)C(N)=O)[C@@H](C)O)C(C)C)[C@@H](C)O
notes: also called 17R, 21P, 27P, 34P
B4: N^ε1-[2-[2-[2-[[(4S)-4-carboxy-4-(19-carboxynonadecanoylamino)butanoyl]amino]ethoxy]ethoxy]acetyl]-[Arg17,Pro21,Pro27,Pro29,Pro34]-h-amylin (peptide)
peptide: K([AEEA-γGlu-C20 diacid])CNTATCATQRLANFLRHSSPNFGAIPSPTNVGPNTY-NH2
modifications: disulfide 2-7; N-terminus assumed
SMILES: CC[C@H](C)[C@H](NC(=O)[C@H](C)NC(=O)CNC(=O)[C@H](Cc1ccccc1)NC(=O)[C@H](CC(N)=O)NC(=O)[C@@H]1CCCN1C(=O)[C@H](CO)NC(=O)[C@H](CO)NC(=O)[C@H](Cc1c[nH]cn1)NC(=O)[C@H](CCCNC(=N)N)NC(=O)[C@H](CC(C)C)NC(=O)[C@H](Cc1ccccc1)NC(=O)[C@H](CC(N)=O)NC(=O)[C@H](C)NC(=O)[C@H](CC(C)C)NC(=O)[C@H](CCCNC(=N)N)NC(=O)[C@H](CCC(N)=O)NC(=O)[C@@H](NC(=O)[C@H](C)NC(=O)[C@@H]1CSSC[C@H](NC(=O)[C@@H](N)CCCCNC(=O)COCCOCCNC(=O)CC[C@H](NC(=O)CCCCCCCCCCCCCCCCCCC(=O)O)C(=O)O)C(=O)N[C@@H](CC(N)=O)C(=O)N[C@@H]([C@@H](C)O)C(=O)N[C@@H](C)C(=O)N[C@@H]([C@@H](C)O)C(=O)N1)[C@@H](C)O)C(=O)N1CCC[C@H]1C(=O)N[C@@H](CO)C(=O)N1CCC[C@H]1C(=O)N[C@H](C(=O)N[C@@H](CC(N)=O)C(=O)N[C@H](C(=O)NCC(=O)N1CCC[C@H]1C(=O)N[C@@H](CC(N)=O)C(=O)N[C@H](C(=O)N[C@@H](Cc1ccc(O)cc1)C(N)=O)[C@@H](C)O)C(C)C)[C@@H](C)O
notes: also called 17R, 21P, 27P, 29P, 34P
B5: N^ε1-[2-[2-[2-[[(4S)-4-carboxy-4-(19-carboxynonadecanoylamino)butanoyl]amino]ethoxy]ethoxy]acetyl]-[Arg17,Pro21,Pro27,Pro34,His35]-h-amylin (peptide)
peptide: K([AEEA-γGlu-C20 diacid])CNTATCATQRLANFLRHSSPNFGAIPSSTNVGPHTY-NH2
modifications: disulfide 2-7; N-terminus assumed
SMILES: CC[C@H](C)[C@H](NC(=O)[C@H](C)NC(=O)CNC(=O)[C@H](Cc1ccccc1)NC(=O)[C@H](CC(N)=O)NC(=O)[C@@H]1CCCN1C(=O)[C@H](CO)NC(=O)[C@H](CO)NC(=O)[C@H](Cc1c[nH]cn1)NC(=O)[C@H](CCCNC(=N)N)NC(=O)[C@H](CC(C)C)NC(=O)[C@H](Cc1ccccc1)NC(=O)[C@H](CC(N)=O)NC(=O)[C@H](C)NC(=O)[C@H](CC(C)C)NC(=O)[C@H](CCCNC(=N)N)NC(=O)[C@H](CCC(N)=O)NC(=O)[C@@H](NC(=O)[C@H](C)NC(=O)[C@@H]1CSSC[C@H](NC(=O)[C@@H](N)CCCCNC(=O)COCCOCCNC(=O)CC[C@H](NC(=O)CCCCCCCCCCCCCCCCCCC(=O)O)C(=O)O)C(=O)N[C@@H](CC(N)=O)C(=O)N[C@@H]([C@@H](C)O)C(=O)N[C@@H](C)C(=O)N[C@@H]([C@@H](C)O)C(=O)N1)[C@@H](C)O)C(=O)N1CCC[C@H]1C(=O)N[C@@H](CO)C(=O)N[C@@H](CO)C(=O)N[C@H](C(=O)N[C@@H](CC(N)=O)C(=O)N[C@H](C(=O)NCC(=O)N1CCC[C@H]1C(=O)N[C@@H](Cc1c[nH]cn1)C(=O)N[C@H](C(=O)N[C@@H](Cc1ccc(O)cc1)C(N)=O)[C@@H](C)O)C(C)C)[C@@H](C)O
notes: also called 17R, 21P, 27P, 34P, 35H
B6: N^ε1-[2-[2-[2-[[(4S)-4-carboxy-4-(19-carboxynonadecanoylamino)butanoyl]amino]ethoxy]ethoxy]acetyl]-[Arg17,Pro21,Pro27,Pro31,His35]-h-amylin (peptide)
peptide: K([AEEA-γGlu-C20 diacid])CNTATCATQRLANFLRHSSPNFGAIPSSTPVGSHTY-NH2
modifications: disulfide 2-7; N-terminus assumed
SMILES: CC[C@H](C)[C@H](NC(=O)[C@H](C)NC(=O)CNC(=O)[C@H](Cc1ccccc1)NC(=O)[C@H](CC(N)=O)NC(=O)[C@@H]1CCCN1C(=O)[C@H](CO)NC(=O)[C@H](CO)NC(=O)[C@H](Cc1c[nH]cn1)NC(=O)[C@H](CCCNC(=N)N)NC(=O)[C@H](CC(C)C)NC(=O)[C@H](Cc1ccccc1)NC(=O)[C@H](CC(N)=O)NC(=O)[C@H](C)NC(=O)[C@H](CC(C)C)NC(=O)[C@H](CCCNC(=N)N)NC(=O)[C@H](CCC(N)=O)NC(=O)[C@@H](NC(=O)[C@H](C)NC(=O)[C@@H]1CSSC[C@H](NC(=O)[C@@H](N)CCCCNC(=O)COCCOCCNC(=O)CC[C@H](NC(=O)CCCCCCCCCCCCCCCCCCC(=O)O)C(=O)O)C(=O)N[C@@H](CC(N)=O)C(=O)N[C@@H]([C@@H](C)O)C(=O)N[C@@H](C)C(=O)N[C@@H]([C@@H](C)O)C(=O)N1)[C@@H](C)O)C(=O)N1CCC[C@H]1C(=O)N[C@@H](CO)C(=O)N[C@@H](CO)C(=O)N[C@H](C(=O)N1CCC[C@H]1C(=O)N[C@H](C(=O)NCC(=O)N[C@@H](CO)C(=O)N[C@@H](Cc1c[nH]cn1)C(=O)N[C@H](C(=O)N[C@@H](Cc1ccc(O)cc1)C(N)=O)[C@@H](C)O)C(C)C)[C@@H](C)O
notes: also called 17R, 21P, 27P, 31P, 35H

target: T1, human amylin receptor (human, UniProt P30988 25-474; O60896 24-148, limits assumed); experiment: SPA competition binding, displacement of 125I-rat amylin from membranes with human amylin 3(a) receptor (Assay V)
T1 construct: whole, on cells; Calcitonin receptor plus RAMP-3 gives the amylin 3(a) receptor; membranes of Amylin 3(a)/CRE-luc cells were used; also called hAmylin-R; hAmylinR
T1 sequence (looked up) 1: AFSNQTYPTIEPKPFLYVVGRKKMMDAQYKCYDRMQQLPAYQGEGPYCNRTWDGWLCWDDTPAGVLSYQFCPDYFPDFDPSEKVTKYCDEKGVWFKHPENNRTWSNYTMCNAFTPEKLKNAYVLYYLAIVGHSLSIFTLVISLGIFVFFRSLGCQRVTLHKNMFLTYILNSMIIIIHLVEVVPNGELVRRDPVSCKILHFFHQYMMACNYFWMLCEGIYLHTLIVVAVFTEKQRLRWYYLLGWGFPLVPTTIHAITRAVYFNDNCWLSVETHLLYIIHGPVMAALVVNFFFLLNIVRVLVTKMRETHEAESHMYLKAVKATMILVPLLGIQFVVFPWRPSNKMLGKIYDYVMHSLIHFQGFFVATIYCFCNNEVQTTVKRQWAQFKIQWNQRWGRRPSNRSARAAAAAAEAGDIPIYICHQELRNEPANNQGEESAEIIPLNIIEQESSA
T1 sequence (looked up) 2: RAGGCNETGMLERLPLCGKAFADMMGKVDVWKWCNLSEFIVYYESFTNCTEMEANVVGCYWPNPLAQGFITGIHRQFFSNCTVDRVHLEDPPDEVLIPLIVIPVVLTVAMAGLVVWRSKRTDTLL
In short: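 Membranes from BHK Amylin 3(a)/CRE-luc cells (35 ng/μL final) were mixed with SPA beads and test compounds in 50 mM Hepes pH 7.4 with 1 mM CaCl2, 5 mM MgCl₂, 0.1% OA and 0.02% Tween20. Incubation ran 120 min at 25° C with shaking; IC₅₀ came from one-site competition fitting.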

Binder	IC50 [nM]
B1	0.042
B2	0.03
B3	0.038
B4	0.049
B5	0.088
B6	0.115
